Experimental data taken from publication PMC2924388.

Key:
[1] = biological target: HIV-1 M-type (NL4.3) capsid N-terminal domain (HIV-1 M-type (NL4.3)) (UniProt P12493); test: ITC; MicroCal ITC200; cyclophilin (typical concentration 1.4 mM) in the syringe, capsid (typical concentration 120 µM) in the cell; 50 mM KPO4 pH 7.4, 100 mM NaCl, 1 mM DTT; 15°C; one-state model
[2] = biological target: HIV-2 capsid N-terminal domain with an alanine inserted at position 88 (HIV-2 (ROD)); test: as above
[3] = biological target: HIV-1 M-type (NL4.3) capsid N-terminal domain (HIV-1 M-type (NL4.3)) (UniProt P12493)
[4] = biological target: HIV-2 (ROD) capsid N-terminal domain (HIV-2 (ROD))
[5] = biological target: HIV-2 (ROD) capsid N-terminal domain (HIV-2 (ROD)); test: ITC; MicroCal ITC200; cyclophilin (typical concentration 1.4 mM) in the syringe, capsid (typical concentration 120 µM) in the cell; 50 mM KPO4 pH 7.4, 100 mM NaCl, 1 mM DTT; 15°C; one-state model

Substance: CypA domain of Macaca fascicularis TRIMCyp2 (Mafa TRIMCyp2) (domain or fragment)
- Kd [1]: 12 µM
- Kd [2]: 207 µM

Substance: CypA domain of Mafa TRIMCyp2 with Cyp K143E (K446E in TRIMCyp) (domain or fragment)
- restriction of the infectivity of the HIV-1 vector in CRFK cells expressing whole Mafa TRIMCyp2 Cyp K143E; partially rescued by 5 µM cyclosporine (orders of magnitude) [3]: 2
- restriction of the infectivity of the HIV-2 vector in CRFK cells expressing whole Mafa TRIMCyp2 Cyp K143E; completely rescued by 5 µM cyclosporine (orders of magnitude) [4]: 2
- Kd [1]: 12 µM
- Kd [5]: 13 µM
- Kd [2]: 9 µM
